Biological target: recombinant human interleukin-22 (IL-22), expressed in E. coli from pEThTIF, refolded, not glycosylated (human) (UniProt Q9GZX6)
Experiment: X-ray crystal structure, surface buried between monomer A and monomer B

Substance “recombinant human interleukin-22 (IL-22), expressed in E. coli from pEThTIF, refolded, not glycosylated (from UniProt Q9GZX6 29-179) (ligand)” has an interface area of 2250 Å^2.
